Data on 29 molecules can be found in patent publication US20220259593A1, “CONTROL OF MAMMALIAN GENE DOSAGE USING CRISPR” (The Regents of the University of California, priority 2019, published 2022).

The subject of this data set is K562 CRISPRi cells. In words: Constant region variant library pooled growth screen, K562. Type of data set: cell-based, human. Conditions: sgRNA constant region variants. An outline of the steps:
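K562 CRISPRi, duplicate transductions; puromycin 1 d 0.75 μg/mL then 1 d 0.85 μg/mL; >2000× coverage in spinner flasks; harvests at 4-8 d growth. Activity = phenotype ÷ phenotype with unmodified constant region.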

Where [1] appears, read: relative to the original, un-modified constant region cr995 (= 1).
[2] abbreviates: activity relative to the original, un-modified constant region cr995.

B1: cr020 (nucleic acid)
guide: GTTTAATAGCTAAGCTGGAAACAGCATAGCAAGTTTAAATAAGGCTAGTCCGTTATCAACTTGAAAAAGTGGCACCGAGTCGGTGCT
modifications: listed as DNA, chemistry not fully specified
Turning to B1, under setting [1], the Mean relative activity is listed as 1.02.

B2: cr019 (nucleic acid)
guide: GTTTAACAGCTAAGCTGGAAACAGCATAGCAAGTTTAAATAAGGCTAGTCCGTTATCAACTTGAAAAAGTGGCACCGAGTCGGTGCT
modifications: listed as DNA, chemistry not fully specified
With B2, the Mean relative activity under setting [1] was determined as 1.019.

B3: cr433 (nucleic acid)
guide: GTTTAAGAGCTAAGCTGGAAACAGCATAGCAAGTTTAAATAAGGCTAGTCCGTTATCAACTTGAATAAGTGGCACCGAGTCGGTGCT
modifications: listed as DNA, chemistry not fully specified
The molecule B3 displayed a Mean relative activity under setting [1] of 1.012.

B4: cr603 (nucleic acid)
guide: GTTTAAGAGCTAAGCTGGAAACAGCATAGCAAGTTTAAATAAGGCTAGTCCGTTATCAACTTGAGCAAGTGGCACCGAGTCGGTGCT
modifications: listed as DNA, chemistry not fully specified
Take B4: the Mean relative activity under setting [1] worked out at 1.018.

B5: cr557 (nucleic acid)
guide: GTTTAAGAGCTAAGCTGGCAACAGCATAGCAAGTTTAAATAAGGCTAGTCCGTTATCAACTTGAAAAAGTGGCACCGAGTCGGTGCT
modifications: listed as DNA, chemistry not fully specified
B5 gave a Mean relative activity under setting [1] of 1.018.

B6: cr408 (nucleic acid)
guide: GTTTAAGAGCTAAGCTGGAAACAGCATAGCAAGTTTAAATAAGGCTAGTCCGTTATCAACTTGAGAAAGTGACACCGAGTCGGTGTT
modifications: listed as DNA, chemistry not fully specified
Under setting [1], B6 gave a Mean relative activity of 1.018.

B7: cr701 (nucleic acid)
guide: GTTTAAGAGCTAAGCTGGAAACAGCATAGCAAGTTTAAATAAGGCTAGTCCGTTATCAACTTGAAAAAGTGGCACCGACTCGGTGCT
modifications: listed as DNA, chemistry not fully specified
For the molecule B7, under setting [1], the Mean relative activity is recorded as 1.016.

B8: cr971 (nucleic acid)
guide: GTTTAAGAGCTAAGCTGGAAACAGCATAGCAAGTTTAAATAAGGCTAGTCCGTTATCAACTTAATAAAGTGGCACCGAGTCGGTGCT
modifications: listed as DNA, chemistry not fully specified
Under setting [1], B8 gave a Mean relative activity of 1.017.

B9: cr592 (nucleic acid)
guide: GTTTAAGAGCTAAGCTGGAAACAGCATAGCAAGTTTAAATAAGGTTAATCCGTTATCAACTTGAAAAAGTGGCACCGAGTCGGTGCT
modifications: listed as DNA, chemistry not fully specified
Under setting [1], B9 displayed a Mean relative activity of 1.017.

B10: cr234 (nucleic acid)
guide: GTTTAAGAGCTAAGCTGGAAACAGCATAGCAAGTTTAAATAAGGCTAGTCCGTTATCAACTCGAAAAAGTGGCACCGAGTCGGTGCT
modifications: listed as DNA, chemistry not fully specified
B10 registered a Mean relative activity under setting [2] of 1.075.

B11: cr941 (nucleic acid)
guide: GTTTAAGAGCTAAGCTGGAAACAGCATAGCAAGTTTAAATAAGGCTAGTCCGTTATCAAATGGAAACATTGACACCGAGTCGGTGTT
modifications: listed as DNA, chemistry not fully specified
As for B11, the Mean relative activity under setting [1] worked out at 1.016.

B12: cr428 (nucleic acid)
guide: GTTTAAGAGCTAAGCTGGAAACAGCATAGCAAGTTTAAATAAGGCTAGTCCGTTATCAACTTGCATAAGTGGCACCGAGTCGGTGCT
modifications: listed as DNA, chemistry not fully specified
In turn, B12 came in with a Mean relative activity under setting [1] of 1.013.

B13: cr239 (nucleic acid)
guide: GTTTAAGAGCTAAGCTGGAAACAGCATAGCAAGTTTAAATAAGGCTAGTCCGCTATCAACTTGTAAAAGTGGCACCGAGTCGGTGCT
modifications: listed as DNA, chemistry not fully specified
In turn, B13 came in with a Mean relative activity under setting [1] of 1.014.

B14: cr018 (nucleic acid)
guide: GTTTAAAAGCTAAGCTGGAAACAGCATAGCAAGTTTAAATAAGGCTAGTCCGTTATCAACTTGAAAAAGTGGCACCGAGTCGGTGCT
modifications: listed as DNA, chemistry not fully specified
Molecule B14 gave a Mean relative activity under setting [1] of 1.017.

B15: cr655 (nucleic acid)
guide: GTTTAAGAGCTAAGCTGGAAACAGCATAGCAAGTTTAAATAAGGCTAGTCCGTCATCAACTTGAAAAAGTGGCACCGAGTCGGTGCT
modifications: listed as DNA, chemistry not fully specified
In the case of B15, the Mean relative activity under setting [1] is 1.016.

B16: cr980 (nucleic acid)
guide: GTTTAAGAGCTAAGCTGGAAACAGCATAGCAAGTTTAAATAAGGCTAGTCCGCTATCAACTTGAAAAAGTGGCACCGAGTCGGTGCT
modifications: listed as DNA, chemistry not fully specified
The molecule B16 gave a Mean relative activity under setting [1] of 1.014.

B17: cr354 (nucleic acid)
guide: GTTTAAGAGCTAAGCTGGAAACAGCATAGCAAGTTTAAATAAGGCTAGTCCGTTATCAGCTTGAAAAAGCGATACCGAGTCGGTATT
modifications: listed as DNA, chemistry not fully specified
On to B17, for which the Mean relative activity under setting [1] is 1.016.

B18: cr283 (nucleic acid)
guide: GTTTAAGAGCTAAGCTGGAAACAGCATAGCAAGTTTAAATAAGGCTAGTCCGTTATCAACTTGAAAAAGTGACACCGAGTCGGTGCT
modifications: listed as DNA, chemistry not fully specified
For B18, the Mean relative activity under setting [1] is on record as 1 .01760152.

B19: cr619 (nucleic acid)
guide: GTTTAAGAGCTAAGCTGGAAACAGCATAGCAAGTTTAAATAAGGCTAGTCCGTTATCAACTTGGAAAAGTGGCACCGAGTCGGTGCT
modifications: listed as DNA, chemistry not fully specified
Take B19: the Mean relative activity under setting [1] was determined as 1.015.

B20: cr898 (nucleic acid)
guide: GTTTAAGAGCTAAGCTGGAAACAGCATAGCACGTTTAAATAAGGCTAGTCCGTTATCAACTTGAGAAAGTGGCACCGAGTCGGTGCT
modifications: listed as DNA, chemistry not fully specified
Take B20: under setting [1], the Mean relative activity is on record as 1.014.

B21: cr494 (nucleic acid)
guide: GTTTAAGAGCTAAGCTGGAAACAGCATAGCAAGTTTAAATAAGGCTAGTCCGTTATCAACTTGAAATAGTGGCACCGAGTCGGTGCT
modifications: listed as DNA, chemistry not fully specified
B21 returned a Mean relative activity under setting [1] of 1.016.

B22: cr302 (nucleic acid)
guide: GTTTAAGAGCTAAGCTGGAAACAGCATAGCAAGTTTAAATAAGGCTAGTCCGTTATCAACGTGAAAACGTGGTCCCGAGTCGGGACT
modifications: listed as DNA, chemistry not fully specified
Take B22: the Mean relative activity under setting [1] is 1.016.

B23: cr121 (nucleic acid)
guide: GTTTAAGAGCTAAGCTGGAAACAGCATAGCAAGTTTAAATAAGGCTAGTCCGTTATCATCATGAAAATGAGGCACCGAGTCGGTGCT
modifications: listed as DNA, chemistry not fully specified
The molecule B23 registered a Mean relative activity under setting [1] of 1.014.

B24: cr820 (nucleic acid)
guide: GTTTAAGAGCTAAGCTGGAAACAGCATAGCAAGTTTAAATAAGGCTAGTCCGTTATCAACTGGAGACAGTGGCACCGAGTCGGTGCT
modifications: listed as DNA, chemistry not fully specified
In turn, B24 yielded a Mean relative activity under setting [2] of 1.072.

B25: cr323 (nucleic acid)
guide: GTTTAAGAGCTAAGCTGGAAACAGCATAGCAGGTTTAAATAAGGCTAGTCCGTTATCAACTTGACAAAGTGGCACCGAGTCGGTGCT
modifications: listed as DNA, chemistry not fully specified
Under setting [1], B25 returned a Mean relative activity of 1.02.

B26: cr113 (nucleic acid)
guide: GTTTAAGAGCTAAGCTGGAAACAGCATAGCAAGTTTAAATAAGGCTAGTCCGTTTTCAACTTGAAAAAGTGGCACCGAGTCGGTGCT
modifications: listed as DNA, chemistry not fully specified
In turn, B26 registered a Mean relative activity under setting [1] of 1.016.

B27: cr366 (nucleic acid)
guide: GTTTAAGAGCTAAGCTGGAAACAGCATAGCAAGTTTAAATAAGGCTAGTCCGTTATCAGCTTGAAAAAGCGGCACTGAGTCAGTGCT
modifications: listed as DNA, chemistry not fully specified
Consider B27, for which the Mean relative activity under setting [1] was found to be 1.017.

B28: cr464 (nucleic acid)
guide: GTTTAAGAGCTAAGCTGGAAACAGCATAGCAAGTTTAAATAAGGCTAGTCCGTTATCACCTTGAAAAAGGGGCACCAAGTTGGTGCT
modifications: listed as DNA, chemistry not fully specified
B28 yielded a Mean relative activity under setting [1] of 1.017.

B29: cr730 (nucleic acid)
guide: GTTTAAGAGCTAAGCTGGAAACAGCATAGCAAGTTTAAATAAGGCTAGTCCGTTATCAACTTGAAAAAGTGGGGGCGAGTCGCCCCT
modifications: listed as DNA, chemistry not fully specified
As for B29, the Mean relative activity under setting [1] worked out at 1.018.
